The text below walks through data of publication PMC4452782.

In assay [1] the target is GEC1/GABARAPL1 (GL1) (human (endogenous in MDA-MB-436 and MCF-7)) (UniProt Q9H0R8). Put plainly: proximity ligation; P-LISA (Duolink In Situ Detection Reagents Red) on MDA-MB-436 cells fixed with 4% paraformaldehyde and permeabilised with cold methanol; endogenous proteins; mouse anti-SQSTM1 or anti-NIX with rabbit anti-LC3B or anti-GL1; dots per cell counted with BlobFinder; untreated cells, also after Rapa (10 uM, 5 h), Rot (50 uM, 24 h) or CCCP (100 uM, 24 h).
Sequence of GEC1/GABARAPL1 (GL1) (human (endogenous in MDA-MB-436 and MCF-7)) (Q9H0R8 whole entry): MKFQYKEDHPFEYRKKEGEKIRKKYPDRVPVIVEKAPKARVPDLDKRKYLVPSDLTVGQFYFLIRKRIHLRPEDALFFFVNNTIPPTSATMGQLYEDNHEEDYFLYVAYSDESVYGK

In assay [2] the target is LC3B (human (endogenous in MDA-MB-436)) (UniProt Q9GZQ8). Described as above.

Sequence of NIX/BNIP3L, O60238 1-219 (natural protein; other documents disagree on this pair) (O60238 whole entry): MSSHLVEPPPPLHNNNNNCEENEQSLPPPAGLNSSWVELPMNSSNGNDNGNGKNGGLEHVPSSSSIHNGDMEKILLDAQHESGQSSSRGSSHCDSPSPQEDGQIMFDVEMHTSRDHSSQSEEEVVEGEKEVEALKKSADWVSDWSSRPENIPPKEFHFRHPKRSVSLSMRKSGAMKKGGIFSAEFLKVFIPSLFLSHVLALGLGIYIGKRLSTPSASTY

Turning to “NIX/BNIP3L, O60238 1-219 (natural protein; other documents disagree on this pair)”, the P-LISA dots per cell in assay [1] turned out to be 11.6 dots/cell; in assay [2], 18.9 dots/cell.
